Measured values taken from US7897142B2, “Peptide based-compounds” (GE Healthcare AS, priority 2004, dated 2011).
Positions of bridges follow the written chain, without caps; N, C: chain ends. Residues, ends and D or L forms follow the SMILES beside them. *: point of attachment. X1 = CC[N+]1=C(/C=C/C=C/C=C2/N(CCCCCC(=O)*)c3ccc(S(=O)(=O)O)cc3C2(C)C)C(C)(C)c2cc(S(=O)(=O)[O-])ccc21; X3 = C[N+]1=C(/C=C/C=C/C=C2/N(CCCCCC(=O)*)c3ccccc3C2(C)C)C(C)(C)c2cc(S(=O)(=O)[O-])ccc21; X2 = NC(=O)COCC(=O)NCCOCCOCCOCCN*

Assay: in vitro
Conditions: blood plasma
Description: Protein Binding Analysis of Dye Conjugates Containing 1, 2 and 4 Sulphonic Acid Groups
An analysis of protein binding of the dye conjugates of the invention was performed by an equilibrium dialysis and rate dialysis as described in the book “Protein-Ligand Interactions: Hydrodynamics and calorimetry”, edited by Stephen E. Harding and Babur Z. Chowdhry, Oxford University Press, published 2001, chapter 2 by Bent Honoré, Department of Medical Biochemisty, University of Aarhus.

Question: With `CC[N+]1=C(/C=C/C=C/C=C2/N(CCCCCC(=O)NCCCC[C@@H]3NC(=O)CSC[C@@H](C(=O)NCCOCCOCCOCCNC(=O)COCC(N)=O)NC(=O)[C@H](Cc4ccccc4)NC(=O)[C@@H]4CSSC[C@H](NC3=O)C(=O)N[C@@H](CCCNC(=N)N)C(=O)NCC(=O)N[C@@H](CC(=O)O)C(=O)N4)c3ccc4c(S(=O)(=O)O)cc(S(=O)(=O)O)cc4c3C2(C)C)C(C)(C)c2c1ccc1c(S(=O)(=O)O)cc(S(=O)(=O)O)cc21` [Compound C] as the compound, how does the fraction unbound read?
Answer: 0.55

Question: For `CC[N+]1=C(/C=C/C=C/C=C2/N(CCCCCC(=O)NCCCC[C@@H]3NC(=O)CSC[C@@H](C(=O)NCCOCCOCCOCCNC(=O)COCC(N)=O)NC(=O)[C@H](Cc4ccccc4)NC(=O)[C@@H]4CSSC[C@H](NC3=O)C(=O)N[C@@H](CCCNC(=N)N)C(=O)NCC(=O)N[C@@H](CC(=O)O)C(=O)N4)c3ccc(S(=O)(=O)O)cc3C2(C)C)C(C)(C)c2cc(S(=O)(=O)[O-])ccc21` [Compound B, Cys2-6; c[CH2CO-Lys(Cy5 bis-SO3)-Cys-Arg-Gly-Asp-Cys-Phe-Cys]-(PEG)n-NH2 (n=1)] ({CH2CO}-K(X1)CRGDCFC-X2; disulfide 2-6; thioether N-8), which fraction unbound is on record?
Answer: 0.79

Question: Which fraction unbound does the source give for `C[N+]1=C(/C=C/C=C/C=C2/N(CCCCCC(=O)NCCCC[C@@H]3NC(=O)CSC[C@@H](C(=O)NCCOCCOCCOCCNC(=O)COCC(N)=O)NC(=O)[C@H](Cc4ccccc4)NC(=O)[C@@H]4CSSC[C@H](NC3=O)C(=O)N[C@@H](CCCNC(=N)N)C(=O)NCC(=O)N[C@@H](CC(=O)O)C(=O)N4)c3ccccc3C2(C)C)C(C)(C)c2cc(S(=O)(=O)[O-])ccc21` [Compound A, Cys2-6; c[CH2CO-Lys(Cy5 mono-SO3)-Cys-Arg-Gly-Asp-Cys-Phe-Cys]-(PEG)n-NH2 (n=1)] ({CH2CO}-K(X3)CRGDCFC-X2; disulfide 2-6; thioether N-8) here?
Answer: 0.83
